Here are results for 20 molecules from patent US20150344570A1 (published 2015).

The labels stand for the following.
T1: FcγRIIb (human, UniProt P31994 43-217)
T1 construct: extracellular domain; also called FcgRIIb; 2b
T1 sequence (looked up): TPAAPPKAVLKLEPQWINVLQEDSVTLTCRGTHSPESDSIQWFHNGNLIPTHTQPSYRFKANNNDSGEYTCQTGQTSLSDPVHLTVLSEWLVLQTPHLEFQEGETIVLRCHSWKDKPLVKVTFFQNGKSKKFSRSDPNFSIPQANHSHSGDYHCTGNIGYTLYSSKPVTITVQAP

B1: GpH7-A5/GpH7-B3 variant P331_03V/GpL16-k0 (antibody, human IgG1, kappa)
heavy 1: not shown
heavy 2: not shown
light: DIVMTQSPLSLPVTPGEPASISCQASESLVHSNRNTYLHWYLQKPGQSPQLLIYKVSNRFSGVPDRFSGSGSGTDFTLKISRVEAEDVGVYYCSQNTHVPPTFGQGTKVEIERTVAAPSVFIFPPSDEQLKSGTASVVCLLNNFYPREAKVQWKVDNALQSGNSQESVTEQDSKDSTYSLSSTLTLSKADYEKHKVYACEVTHQGLSSPVTKSFNRGEC
notes: mutation in the GpH7-B3 chain only; also called He Ab
B2: GpH7-A5/GpH7-B3 variant L328_07I/GpL16-k0 (antibody, human IgG1, kappa)
heavy 1: not shown
heavy 2: not shown
light: B1 light
notes: as for B1
B3: GpH7-A5/GpH7-B3 variant P331_20W/GpL16-k0 (antibody, human IgG1, kappa)
heavy 1: not shown
heavy 2: not shown
light: B1 light
notes: as for B1
B4: GpH7-A5/GpH7-B3 variant N325_07I/GpL16-k0 (antibody, human IgG1, kappa)
heavy 1: not shown
heavy 2: not shown
light: B1 light
notes: as for B1
B5: GpH7-A5/GpH7-B3 variant S337_07I/GpL16-k0 (antibody, human IgG1, kappa)
heavy 1: not shown
heavy 2: not shown
light: B1 light
notes: as for B1
B6: GpH7-A5/GpH7-B3 variant N325_03V/GpL16-k0 (antibody, human IgG1, kappa)
heavy 1: not shown
heavy 2: not shown
light: B1 light
notes: as for B1
B7: GpH7-A5/GpH7-B3 variant T335_04F/GpL16-k0 (antibody, human IgG1, kappa)
heavy 1: not shown
heavy 2: not shown
light: B1 light
notes: as for B1
B8: GpH7-A5/GpH7-B3 variant L328_02A/GpL16-k0 (antibody, human IgG1, kappa)
heavy 1: not shown
heavy 2: not shown
light: B1 light
notes: as for B1
B9: GpH7-A5/GpH7-B3 variant S337_08L/GpL16-k0 (antibody, human IgG1, kappa)
heavy 1: not shown
heavy 2: not shown
light: B1 light
notes: as for B1
B10: GpH7-A5/GpH7-B3 variant P331_07I/GpL16-k0 (antibody, human IgG1, kappa)
heavy 1: not shown
heavy 2: not shown
light: B1 light
notes: as for B1
B11: GpH7-A5/GpH7-B3 variant P331_16H/GpL16-k0 (antibody, human IgG1, kappa)
heavy 1: not shown
heavy 2: not shown
light: B1 light
notes: as for B1
B12: GpH7-A5/GpH7-B3 variant T335_18N/GpL16-k0 (antibody, human IgG1, kappa)
heavy 1: not shown
heavy 2: not shown
light: B1 light
notes: as for B1
B13: GpH7-A5/GpH7-B3 variant N325_20W/GpL16-k0 (antibody, human IgG1, kappa)
heavy 1: not shown
heavy 2: not shown
light: B1 light
notes: as for B1
B14: GpH7-A5/GpH7-B3 variant L328_03V/GpL16-k0 (antibody, human IgG1, kappa)
heavy 1: not shown
heavy 2: not shown
light: B1 light
notes: as for B1
B15: GpH7-A5/GpH7-B3 variant L328_14T/GpL16-k0 (antibody, human IgG1, kappa)
heavy 1: not shown
heavy 2: not shown
light: B1 light
notes: as for B1
B16: GpH7-A5/GpH7-B3 variant L328_06M/GpL16-k0 (antibody, human IgG1, kappa)
heavy 1: not shown
heavy 2: not shown
light: B1 light
notes: as for B1
B17: GpH7-A5/GpH7-B3 variant P331_06M/GpL16-k0 (antibody, human IgG1, kappa)
heavy 1: not shown
heavy 2: not shown
light: B1 light
notes: as for B1
B18: GpH7-A5/GpH7-B3 variant L328_09D/GpL16-k0 (antibody, human IgG1, kappa)
heavy 1: not shown
heavy 2: not shown
light: B1 light
notes: as for B1
B19: GpH7-A5/GpH7-B3 variant N325_13S/GpL16-k0 (antibody, human IgG1, kappa)
heavy 1: not shown
heavy 2: not shown
light: B1 light
notes: as for B1
B20: GpH7-A5/GpH7-B3 variant L328_15Y/GpL16-k0 (antibody, human IgG1, kappa)
heavy 1: not shown
heavy 2: not shown
light: B1 light
notes: as for B1

For the first assay, the target named is T1, FcγRIIb. The experiment in a line: SPR (Biacore), relative binding. (Surface plasmon resonance follows binding to a sensor surface in real time, without labels.)
Turning to B1, the He/Con_2b was 119 % of GpH7-A5/GpH7-B3/GpL16-k0.
Still for that read-out and setting: the value for B2 was 160 % of GpH7-A5/GpH7-B3/GpL16-k0.
On the same count and under the same terms, the value for B3 was 111 % of GpH7-A5/GpH7-B3/GpL16-k0.
As to B4, the He/Con_2b was 171 % of GpH7-A5/GpH7-B3/GpL16-k0.
The same measure, in the same setting: the figure for B5 is 104 % of GpH7-A5/GpH7-B3/GpL16-k0; for B6 it is 111 % of GpH7-A5/GpH7-B3/GpL16-k0.
Still for that read-out and setting: the figure for B7 is 103 % of GpH7-A5/GpH7-B3/GpL16-k0; for B8 it is 144 % of GpH7-A5/GpH7-B3/GpL16-k0; for B9 it is 100 % of GpH7-A5/GpH7-B3/GpL16-k0.
The same measure, in the same setting: the value for B10 was 114 % of GpH7-A5/GpH7-B3/GpL16-k0.
Take B11: the He/Con_2b is 116 % of GpH7-A5/GpH7-B3/GpL16-k0.
On the same count and under the same terms, the value for B12 was 102 % of GpH7-A5/GpH7-B3/GpL16-k0; that for B13 was 169 % of GpH7-A5/GpH7-B3/GpL16-k0.
On the same count and under the same terms, the figure for B14 is 126 % of GpH7-A5/GpH7-B3/GpL16-k0.
The same measure, in the same setting: the value for B15 was 141 % of GpH7-A5/GpH7-B3/GpL16-k0; that for B16 was 142 % of GpH7-A5/GpH7-B3/GpL16-k0.
On to B17, for which the He/Con_2b is 102 % of GpH7-A5/GpH7-B3/GpL16-k0.
On to B18, for which the He/Con_2b was 199 % of GpH7-A5/GpH7-B3/GpL16-k0.
For B19, the He/Con_2b was 177 % of GpH7-A5/GpH7-B3/GpL16-k0.
As for B20, the He/Con_2b is 193 % of GpH7-A5/GpH7-B3/GpL16-k0.

The target of the next assay is T2, FcγRIIIa (human, UniProt P08637 17-208).
T2 construct: extracellular domain; also called FcgRIIIa; 3a
T2 sequence (P08637 17-208): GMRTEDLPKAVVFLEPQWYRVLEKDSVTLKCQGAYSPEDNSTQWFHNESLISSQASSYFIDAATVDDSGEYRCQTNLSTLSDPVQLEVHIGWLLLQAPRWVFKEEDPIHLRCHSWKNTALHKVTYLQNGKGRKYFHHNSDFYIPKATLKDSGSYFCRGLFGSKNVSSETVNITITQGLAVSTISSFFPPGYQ
The experiment in a line: SPR (Biacore), relative binding.
Take B1: the He/Con_3a is 73.2 % of GpH7-A5/GpH7-B3/GpL16-k0.
Still for that read-out and setting: the figure for B2 is 84 % of GpH7-A5/GpH7-B3/GpL16-k0; for B3 it is 78.6 % of GpH7-A5/GpH7-B3/GpL16-k0; for B4 it is 28.7 % of GpH7-A5/GpH7-B3/GpL16-k0.
As to B5, the He/Con_3a was 94.8 % of GpH7-A5/GpH7-B3/GpL16-k0.
On the same count and under the same terms, the figure for B6 is 30.3 % of GpH7-A5/GpH7-B3/GpL16-k0; for B7 it is 96 % of GpH7-A5/GpH7-B3/GpL16-k0; for B8 it is 79.1 % of GpH7-A5/GpH7-B3/GpL16-k0.
Same read-out and setting: the figure for B9 is 96.9 % of GpH7-A5/GpH7-B3/GpL16-k0; for B10 it is 66 % of GpH7-A5/GpH7-B3/GpL16-k0; for B11 it is 80.2 % of GpH7-A5/GpH7-B3/GpL16-k0.
Same read-out and setting: the figure for B12 is 98.8 % of GpH7-A5/GpH7-B3/GpL16-k0.
With B13, the He/Con_3a is 32.8 % of GpH7-A5/GpH7-B3/GpL16-k0.
The same measure, in the same setting: the value for B14 was 78.7 % of GpH7-A5/GpH7-B3/GpL16-k0; that for B15 was 75.3 % of GpH7-A5/GpH7-B3/GpL16-k0; that for B16 was 78.6 % of GpH7-A5/GpH7-B3/GpL16-k0.
On the same count and under the same terms, the figure for B17 is 74.8 % of GpH7-A5/GpH7-B3/GpL16-k0; for B18 it is 47.8 % of GpH7-A5/GpH7-B3/GpL16-k0.
On the same count and under the same terms, the figure for B19 is 65.1 % of GpH7-A5/GpH7-B3/GpL16-k0; for B20 it is 68.3 % of GpH7-A5/GpH7-B3/GpL16-k0.
